Reference: publication PMC8523169, “Competitive binding of MatP and topoisomerase IV to the MukB hinge domain” (eLife, 2021)

Tests used:
[1] = biological target: T1, full-length ParC, N-terminal 6xHis-tag (E. coli, UniProt P0AFI2 1-752); assay: native MS; proteins buffer exchanged into 200 mM ammonium acetate pH 8.0, alone or mixed in different ratios (two or three components, with or without 50 bp DNA), 10 min on ice; conditions: both partners purified
T1 construct: ParC subunit of topoisomerase IV, E. coli, full length; also called His-ParC; ParC2; source: overexpressed, purified as previously published (Nolivos et al., 2016) with an added SEC step; not shown: His6, N-terminal, kept
T1 sequence (looked up): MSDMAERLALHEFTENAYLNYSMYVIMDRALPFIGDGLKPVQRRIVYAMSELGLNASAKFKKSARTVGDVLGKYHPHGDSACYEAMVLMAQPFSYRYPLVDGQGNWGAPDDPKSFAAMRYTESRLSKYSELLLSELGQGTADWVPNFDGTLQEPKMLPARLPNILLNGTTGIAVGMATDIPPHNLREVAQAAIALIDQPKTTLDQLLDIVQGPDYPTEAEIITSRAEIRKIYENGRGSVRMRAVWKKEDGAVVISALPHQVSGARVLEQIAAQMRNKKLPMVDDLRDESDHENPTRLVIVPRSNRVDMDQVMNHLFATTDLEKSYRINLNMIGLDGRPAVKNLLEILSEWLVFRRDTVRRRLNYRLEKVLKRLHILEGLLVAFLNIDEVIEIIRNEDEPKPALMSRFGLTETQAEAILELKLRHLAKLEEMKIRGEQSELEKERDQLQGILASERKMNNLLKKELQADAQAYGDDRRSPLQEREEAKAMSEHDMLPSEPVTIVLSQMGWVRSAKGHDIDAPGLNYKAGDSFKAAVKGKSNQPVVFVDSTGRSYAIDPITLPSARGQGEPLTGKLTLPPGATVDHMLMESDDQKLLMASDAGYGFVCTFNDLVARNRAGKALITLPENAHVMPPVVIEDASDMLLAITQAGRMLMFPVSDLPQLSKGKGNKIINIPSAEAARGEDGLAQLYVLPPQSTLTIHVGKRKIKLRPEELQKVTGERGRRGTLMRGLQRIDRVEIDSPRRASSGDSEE

[2] = biological target: T1, full-length ParC, N-terminal 6xHis-tag; assay: ITC; 100 µM LH titrated into 10 µM ParC at 25 °C; one-site model; three repeats; conditions: both partners purified
[3] = biological target: the molecule itself; assay: native MS; proteins buffer exchanged into 200 mM ammonium acetate pH 8.0, alone or mixed in different ratios (two or three components, with or without 50 bp DNA), 10 min on ice

B1: MukB long hinge (LH; amino acid residues 568–863) (domain or fragment, E. coli, UniProt P22523 568-863, looked up)
chain: SLSDSVSNAREERMALRQEQEQLQSRIQSLMQRAPVWLAAQNSLNQLSEQCGEEFTSSQDVTEYLQQLLEREREAIVERDEVGARKNAVDEEIERLSQPGGSEDQRLNALAERFGGVLLSEIYDDVSLEDAPYFSALYGPSRHAIVVPDLSQVTEHLEGLTDCPEDLYLIEGDPQSFDDSVFSVDELEKAVVVKIADRQWRYSRFPEVPLFGRAARESRIESLHAEREVLSERFATLSFDVQKTQRLHQAFSRFIGSHLAVAFESDPEAEIRQLNSRRVELERALSNHENDNQQQR
notes: MukB, E. coli, residues 568-863: dimeric globular hinge domain and 20% of the coiled-coil region; also called LH (MBP cleaved); LH2; source: NEBExpress cells (pMAL-c5X), purified (amylose, Factor Xa cleavage, HiTrap Q XL, SEC); not shown: MBP, N-terminal, cleaved
- stoichiometry N [1]: 1 LH dimer per ParC dimer
- Kd [2]: 690 nM
- dH [2]: -7.48 kcal/mol
- stoichiometry N [2]: 0.84
- stoichiometry N [3]: 2
